Results from article PMC4275271, “Development and Characterization of a Novel Fusion Protein of a Mutated Granulocyte Colony-Stimulating Factor and Human Serum Albumin in Pichia pastoris” (PLoS ONE, 2014).
Residue numbers refer to the chain shown, from its start. One block for each binder: values may come before it.

Target: T1, recombinant human G-CSF receptor (rhG-CSFR), biotinylated (human, UniProt Q99062 25-627, biotin (biotinylated, site not stated))
T1 construct: human granulocyte colony-stimulating factor receptor
T1 sequence (looked up): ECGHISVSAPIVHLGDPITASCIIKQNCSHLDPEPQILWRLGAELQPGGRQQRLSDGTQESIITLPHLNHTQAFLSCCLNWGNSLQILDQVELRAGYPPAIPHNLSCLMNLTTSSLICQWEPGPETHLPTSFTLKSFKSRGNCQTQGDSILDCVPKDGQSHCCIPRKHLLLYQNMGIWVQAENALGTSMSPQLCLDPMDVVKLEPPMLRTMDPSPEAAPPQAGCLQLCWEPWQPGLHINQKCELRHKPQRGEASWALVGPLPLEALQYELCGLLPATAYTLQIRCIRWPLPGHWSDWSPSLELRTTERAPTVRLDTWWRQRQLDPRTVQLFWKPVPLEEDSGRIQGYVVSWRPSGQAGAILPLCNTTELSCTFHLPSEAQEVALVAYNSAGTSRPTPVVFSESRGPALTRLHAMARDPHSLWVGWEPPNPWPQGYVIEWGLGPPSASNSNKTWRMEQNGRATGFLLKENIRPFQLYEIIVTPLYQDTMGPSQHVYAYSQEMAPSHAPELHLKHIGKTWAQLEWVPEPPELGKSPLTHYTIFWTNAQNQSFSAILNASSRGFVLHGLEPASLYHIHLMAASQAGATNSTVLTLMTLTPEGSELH
Assay: BLI; biotinylated rhG-CSFR (15 µg/ml) on Streptavidin High Binding biosensors, Octet-QK; HMG, rhG-CSF standard or mG-CSF in solution; global fitting
Conditions: both partners purified

Kd: 1.2 nM
koff: 1.94e-05 s⁻¹
kon: 16200 M⁻¹ s⁻¹
B1: Human G-CSF mutant (mG-CSF) (ligand, UniProt P09919-2 31-204, looked up)
chain: APTYRASSLPQSFLLKSLEQVRKIQGDGAALQEKLCATYKLCHPEELVLLGHSLGIPWAPLSSCPSQALQLAGCLSQLHSGLFLYQGLLQALEGISPELGPTLDTLQLDVADFATTIWQQMEELGMAPALQPTQGAMPAFASAFQRRAGGVLVASHLQSFLEVSYRVLRHLAQP
notes: human granulocyte colony-stimulating factor with five substitutions; also called mutated G-CSF

Kd: 1.97 nM
koff: 2.24e-05 s⁻¹
kon: 11400 M⁻¹ s⁻¹
B2: recombinant human G-CSF (rhG-CSF) standard (ligand, UniProt P09919-2 31-204, looked up)
chain: B1 chain with A1T, T3L, Y4G, R5P, S17C
notes: human granulocyte colony-stimulating factor, rhG-CSF standard of Amgen; Amgen's rhG-CSF is recalled to be the 174-residue mature form with an added N-terminal Met (filgrastim); also called recombinant hG-CSF standard; source: bought: Amgen, USA
